Assay results taken from publication PMC12923946 (Cell Reports Medicine, 2026).

Assays:
[1] = molecular target: RSV prefusion F trimer (competition assays) (human respiratory syncytial virus A, …, UniProt P03420, stabilised); experiment: ELISA
[2] = molecular target: hMPV-F A1(NL/1/00) (human metapneumovirus A1, strain NL/1/00, UniProt Q91F55, stabilised); experiment: ELISA
[3] = molecular target: RSV-F A2 (DS-Cav-1) (Human respiratory syncytial virus A, …, UniProt P03420, stabilised); experiment: ELISA
[4] = molecular target: T1, hMPV F-DS-CavEs2-IPDS (human metapneumovirus (strain not …, N-linked glycan at Asn172 (partially modelled))); experiment: cryo-EM structure
T1 chain: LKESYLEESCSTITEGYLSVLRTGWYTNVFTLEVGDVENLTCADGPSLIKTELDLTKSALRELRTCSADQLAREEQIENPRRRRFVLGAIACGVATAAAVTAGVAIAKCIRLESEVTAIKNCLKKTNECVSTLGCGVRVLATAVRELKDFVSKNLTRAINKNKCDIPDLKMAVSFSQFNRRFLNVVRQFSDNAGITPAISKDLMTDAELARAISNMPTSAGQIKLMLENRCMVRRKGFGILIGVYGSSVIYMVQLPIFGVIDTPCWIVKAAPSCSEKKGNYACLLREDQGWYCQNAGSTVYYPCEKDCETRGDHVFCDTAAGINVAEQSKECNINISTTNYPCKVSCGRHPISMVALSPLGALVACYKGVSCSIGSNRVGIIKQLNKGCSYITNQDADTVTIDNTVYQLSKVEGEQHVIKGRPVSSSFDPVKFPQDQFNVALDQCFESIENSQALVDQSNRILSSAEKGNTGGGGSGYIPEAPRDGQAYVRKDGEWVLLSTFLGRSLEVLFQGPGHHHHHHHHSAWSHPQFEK

B1: RM 5-1 (antibody, V domains shown)
VH: QGQLVQSGPEVKKPGATVKVSCRASAYPFGNYGITWVRQVPGQGLEWVGWISAYTGHTKFPQNFQGRVTLTADTSTSTGYMELRSLTSDDTAVYYCARGPCCSSPRPYDIWGQGTMVTVSS
VL: DIQMTQSPSTLSASVGDRVTITCRASQSIDDWLAWYQHSPGKAPKLLIYRASRLESGVPSRFSGSGSGTEFTLTISSLQPDDFASYYCQQCYTYSQTFGQGTRVEIK
Does B1 bind [1]?
Result: binds

Does B1 bind [2]?
Result: binds

Does B1 bind [3]?
Result: binds

B2: RM 5-1 Fab (Fab, V domains shown)
VH: QGQLVQSGPEVKKPGATVKVSCRASAYPFGNYGITWVRQVPGQGLEWVGWISAYTGHTKFPQNFQGRVTLTADTSTSTGYMELRSLTSDDTAVYYCARGPCCSSPRPYDIWGQGTMVTVSS
VL: DIQMTQSPSTLSASVGDRVTITCRASQSIDDWLAWYQHSPGKAPKLLIYRASRLESGVPSRFSGSGSGTEFTLTISSLQPDDFASYYCQQCYTYSQTFGQGTRVEIK
With B2 as the binder, how does the “stoichiometry N” value [4] read?
The value was 3 Fabs per trimer.
